Among the data in article PMC6738421 are Km of arginylation of the substrate by Ate1-3 (enzyme kinetics by ITC) and Km of arginylation of the substrate by Ate1-1 (enzyme kinetics by ITC) values, retold here.

For assay [1], the target named is Arginyl-tRNA-protein transferase Ate1, isoform Ate1-3 (mouse) (UniProt Q9Z2A5).
Assay [2] concerns the target Arginyl-tRNA-protein transferase Ate1, isoform Ate1-1 (mouse) (UniProt Q9Z2A5).

BSA, sequence (P02769 25-607): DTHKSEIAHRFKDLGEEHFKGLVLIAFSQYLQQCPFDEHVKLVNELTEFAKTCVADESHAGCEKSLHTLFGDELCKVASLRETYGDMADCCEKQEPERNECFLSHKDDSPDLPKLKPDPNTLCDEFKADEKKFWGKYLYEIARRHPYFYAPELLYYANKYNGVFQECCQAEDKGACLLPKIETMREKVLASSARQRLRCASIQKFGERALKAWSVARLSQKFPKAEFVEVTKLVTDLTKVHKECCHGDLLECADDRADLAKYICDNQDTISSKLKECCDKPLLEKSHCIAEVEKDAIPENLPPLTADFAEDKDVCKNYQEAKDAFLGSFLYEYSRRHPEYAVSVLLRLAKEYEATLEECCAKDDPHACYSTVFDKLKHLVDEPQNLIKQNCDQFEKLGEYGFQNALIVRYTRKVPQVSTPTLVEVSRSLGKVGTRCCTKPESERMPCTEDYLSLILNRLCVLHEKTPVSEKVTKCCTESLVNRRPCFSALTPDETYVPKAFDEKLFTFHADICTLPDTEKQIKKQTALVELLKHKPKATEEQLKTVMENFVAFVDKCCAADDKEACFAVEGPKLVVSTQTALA
Arginyl-tRNA-protein transferase Ate1, isoform Ate1-3 (mouse), sequence (Q9Z2A5 other isoform, or with tags, fused parts or gaps): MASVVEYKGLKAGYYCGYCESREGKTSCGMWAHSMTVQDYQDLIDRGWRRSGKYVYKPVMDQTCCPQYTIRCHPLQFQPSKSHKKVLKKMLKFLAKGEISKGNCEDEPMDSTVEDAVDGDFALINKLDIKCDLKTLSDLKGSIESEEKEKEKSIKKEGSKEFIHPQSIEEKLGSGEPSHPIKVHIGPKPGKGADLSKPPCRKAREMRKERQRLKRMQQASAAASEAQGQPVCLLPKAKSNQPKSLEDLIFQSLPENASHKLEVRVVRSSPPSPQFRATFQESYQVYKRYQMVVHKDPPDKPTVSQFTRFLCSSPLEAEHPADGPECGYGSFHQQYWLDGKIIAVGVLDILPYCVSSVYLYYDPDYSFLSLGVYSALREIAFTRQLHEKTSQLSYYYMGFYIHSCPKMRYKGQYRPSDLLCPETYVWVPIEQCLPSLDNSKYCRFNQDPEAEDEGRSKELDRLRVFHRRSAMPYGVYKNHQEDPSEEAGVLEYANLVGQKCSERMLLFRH
Arginyl-tRNA-protein transferase Ate1, isoform Ate1-1 (mouse), sequence (Q9Z2A5 whole entry, canonical isoform): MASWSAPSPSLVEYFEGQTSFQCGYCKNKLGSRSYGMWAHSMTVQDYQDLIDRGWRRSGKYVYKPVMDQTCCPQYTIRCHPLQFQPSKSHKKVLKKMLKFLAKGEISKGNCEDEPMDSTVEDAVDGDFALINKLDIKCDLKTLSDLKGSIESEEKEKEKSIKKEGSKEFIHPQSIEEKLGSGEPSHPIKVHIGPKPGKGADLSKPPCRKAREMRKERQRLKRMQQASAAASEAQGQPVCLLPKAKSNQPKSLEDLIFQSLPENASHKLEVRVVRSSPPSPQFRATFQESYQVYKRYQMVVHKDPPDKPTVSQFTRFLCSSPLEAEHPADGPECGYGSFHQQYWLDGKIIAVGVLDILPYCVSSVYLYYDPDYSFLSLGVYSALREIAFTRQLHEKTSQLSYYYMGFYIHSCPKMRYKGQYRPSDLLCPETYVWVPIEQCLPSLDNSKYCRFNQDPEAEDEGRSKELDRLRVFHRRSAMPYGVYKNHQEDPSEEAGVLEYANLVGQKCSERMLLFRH

As to “BSA (from UniProt P02769 25-607) (natural protein)”, the Km of arginylation of the substrate by Ate1-3 (enzyme kinetics by ITC) in assay [1] came out at 52.5 µM. Moreover, the Km of arginylation of the substrate by Ate1-1 (enzyme kinetics by ITC) in assay [2] was found to be 33.2 µM.
